# Experimental data published in the Immune Epitope Database (IEDB).
# Assays:
# HLA-A*03:01 [1] = test: IEDB peptide-MHC binding, purified MHC/competitive/fluorescence; ≥ and ≤ were set here for values at or beyond the usual limits of such assays; conditions: source organism: Zaire ebolavirus
# HLA-A*11:01 = test: as above; conditions: source organism: Zaire ebolavirus
# HLA-A*01:01 = test: as above; conditions: source organism: Zaire ebolavirus
# HLA-A*02:19 [2] = test: IEDB peptide-MHC binding, purified MHC/competitive/fluorescence; filed as Kd, often an IC50 or EC50 that approximates it; ≥ and ≤ were set here for values at or beyond the usual limits of such assays; conditions: source organism: Human immunodeficiency virus 1
# HLA-A*02:06 = test: as above; conditions: source organism: Human immunodeficiency virus 1
# HLA-A*02:12 [3] = test: as above; conditions: source organism: Human immunodeficiency virus 1
# HLA-A*02:03 [4] = test: as above; conditions: source organism: Human immunodeficiency virus 1
# HLA-A*02:01 [5] = test: as above
# HLA-A*69:01 = test: as above; conditions: source organism: Human immunodeficiency virus 1
# HLA-A*02:11 [6] = test: as above; conditions: source organism: Human immunodeficiency virus 1
# HLA-A*02:16 [7] = test: as above; conditions: source organism: Human immunodeficiency virus 1
# HLA-A*02:19 [8] = test: IEDB peptide-MHC binding, purified MHC/direct/fluorescence; filed as Kd, often an IC50 or EC50 that approximates it; ≥ and ≤ were set here for values at or beyond the usual limits of such assays; conditions: source organism: Limestone Canyon virus
# HLA-A*03:01 [9] = test: as above; conditions: source organism: Limestone Canyon virus
# HLA-A*68:02 = test: as above; conditions: source organism: Limestone Canyon virus
# HLA-A*02:12 [10] = test: as above; conditions: source organism: Limestone Canyon virus
# HLA-A*02:03 [11] = test: as above; conditions: source organism: Limestone Canyon virus
# HLA-C*07:02 = test: as above; conditions: source organism: Orthohantavirus sinnombreense
# HLA-A*02:11 [12] = test: as above; conditions: source organism: Limestone Canyon virus
# HLA-A*24:03 = test: as above; conditions: source organism: Limestone Canyon virus
# HLA-A*02:16 [13] = test: as above; conditions: source organism: Limestone Canyon virus
# HLA-A*26:01 = test: IEDB peptide-MHC binding, purified MHC/competitive/fluorescence; filed as Kd, often an IC50 or EC50 that approximates it; ≥ and ≤ were set here for values at or beyond the usual limits of such assays; conditions: source organism: Orthohantavirus sinnombreense
# HLA-B*18:01 = test: as above; conditions: source organism: Orthohantavirus sinnombreense
# HLA-B*57:01 = test: as above; conditions: source organism: Orthohantavirus sinnombreense
# HLA-B*39:01 = test: as above; conditions: source organism: Orthohantavirus sinnombreense
# HLA-B*15:01 [14] = test: as above; conditions: source organism: Orthohantavirus sinnombreense
# HLA-B*46:01 = test: as above; conditions: source organism: Orthohantavirus sinnombreense
# HLA-B*15:17 = test: as above; conditions: source organism: Orthohantavirus sinnombreense
# HLA-B*51:01 = test: as above; conditions: source organism: Orthohantavirus sinnombreense
# HLA-B*27:05 = test: as above; conditions: source organism: Orthohantavirus sinnombreense
# HLA-B*15:01 [15] = test: IEDB peptide-MHC binding, purified MHC/competitive/fluorescence; ≥ and ≤ were set here for values at or beyond the usual limits of such assays; conditions: source organism: Zaire ebolavirus
# HLA-A*24:02 = test: as above; conditions: source organism: Zaire ebolavirus
# HLA-A*02:01 [16] = test: as above; conditions: source organism: Zaire ebolavirus
# HLA-B*07:02 = test: as above
# [17] = source organism: Zaire ebolavirus
sequence,measurement,setting,value
LSGVNNLEH,IC50,HLA-A*03:01 [1],43.5 µM
same,IC50,HLA-A*11:01,5.06 µM
same,IC50,HLA-A*01:01,≥ 167 µM
ALVEMGHHV,Kd,HLA-A*02:19 [2],0.134 µM
same,Kd,HLA-A*02:06,0.00118 µM
same,Kd,HLA-A*02:12 [3],0.0175 µM
same,Kd,HLA-A*02:03 [4],0.00364 µM
same,Kd,HLA-A*02:01 [5]; source organism: Human immunodeficiency virus 1,0.334 µM
same,Kd,HLA-A*69:01,2.01 µM
same,Kd,HLA-A*02:11 [6],0.0018 µM
same,Kd,HLA-A*02:16 [7],0.00307 µM
DSDNTQSEH,IC50,HLA-A*01:01,≥ 84.2 µM
YRTLGVFRY,Kd,HLA-A*02:19 [8],≥ 20 µM
same,Kd,HLA-A*03:01 [9],≥ 20 µM
same,Kd,HLA-A*68:02,≥ 20 µM
same,Kd,HLA-A*02:12 [10],≥ 20 µM
same,Kd,HLA-A*02:03 [11],≥ 20 µM
same,Kd,HLA-C*07:02,0.048 µM
same,Kd,HLA-A*02:11 [12],≥ 20 µM
same,Kd,HLA-A*24:03,≥ 20 µM
same,Kd,HLA-A*02:16 [13],≥ 20 µM
same,Kd,HLA-A*26:01,≥ 20 µM
same,Kd,HLA-B*18:01,≥ 20 µM
same,Kd,HLA-B*57:01,≥ 20 µM
same,Kd,HLA-B*39:01,≥ 20 µM
same,Kd,HLA-B*15:01 [14],≥ 20 µM
same,Kd,HLA-B*46:01,≥ 20 µM
same,Kd,HLA-B*15:17,≥ 20 µM
same,Kd,HLA-A*02:01 [5]; source organism: Orthohantavirus sinnombreense,≥ 20 µM
same,Kd,HLA-B*51:01,≥ 20 µM
same,Kd,HLA-B*27:05,0.144 µM
RTFSIPLGV,IC50,HLA-A*03:01 [1],3.46 µM
same,IC50,HLA-A*11:01,1.62 µM
same,IC50,HLA-B*15:01 [15],≥ 221 µM
same,IC50,HLA-A*24:02,33 µM
same,IC50,HLA-A*02:01 [16],0.321 µM
same,IC50,HLA-B*07:02; [17],≥ 167 µM
IPSSSPTTA,IC50,HLA-B*07:02; source organism: Sudan ebolavirus,22.1 µM
YTSGKRSNT,IC50,HLA-A*02:01 [16],≥ 354 µM
same,IC50,HLA-B*07:02; [17],5.9 µM
